One experiment addresses T1, GST-Cdc42Hs (UniProt P60953 1-191).
T1 construct: Baculovirus expressed; not shown: glutathione S-transferase (GST) fusion partner
Put plainly: pull-down on GSH agarose (nucleotide depleted or GDP state), anti glu-glu immunoblot. On the procedure: (§1) Comparison of p115 stimulated GDP and GTPγ`S dissociation from RhoA. Increasing amounts of glu-glu tagged •N-p115 (0, 0.02, 0.075, 0.02, 0.4, 1.0 μM) were incubated with 0.3 μM RhoA with bound [³H]-GDP or GTP`[³⁵S] for 10 minutes, and the amount of nucleotide remaining bound to RhoA was determined as described in Hart et al. (39). Specificity of •N-p115 stimulated GDP dissociation. Increasing amounts of •N-p115 (0, 0.25, 0.5, 1.0, 2.0 μM) were incubated for 5 minutes with 2.0 μM GST-RhoA, GST-Rac1, GST-Cdc42Hs or EE-K-Ras prebound with [³H]-GDP and analysed as described in A. Western analysis of complex formation. One μg of glu-glu tagged •N-p115 was incubated with 4 μg of the nucleotide depleted or GDP states of baculovirus expressed GST-Rho, GST-Rac or GST-Cdc42Hs coupled to GSH agarose as described in Hart et al. (18). Proteins, which were recovered on the washed GSH beads, were analsed by SDS-PAGE and immunoblotting. The blot was probed with an affinity purified anti glu-glu monoclonal antibody. 100 ngs of glu-glu tagged •N-p115 was used as a positive control. Kinetic analysis of p115-catalyzed GEF activity on RhoA. […] The level of GTP incorporated onto Rho/min/pmol of •N-p115 was measured as GST-RhoA[`³²P]GTP bound to nitrocellulose filters.

Another experiment addresses GST-Rac1 (UniProt P63000 1-192). Described as above. The method, then:
as §1

A further experiment concerns the target T2, EE-K-Ras (UniProt P01116-2 1-188).
T2 construct: Named EE-K-Ras only for the GDP dissociation assay; the result on physical association says 'K-Ras' and its format is not described; not shown: EE (glu-glu) tag
Put plainly: complex formation assay; format for K-Ras not described.

Experiment [1] has as its target RhoA with bound [3H]-GDP or GTPγ[35S] (UniProt P61586 1-193, limits assumed). The experiment is described as follows: cell-based or functional assay.

Chain of RhoA with bound [3H]-GDP or GTPγ[35S] (P61586 whole entry): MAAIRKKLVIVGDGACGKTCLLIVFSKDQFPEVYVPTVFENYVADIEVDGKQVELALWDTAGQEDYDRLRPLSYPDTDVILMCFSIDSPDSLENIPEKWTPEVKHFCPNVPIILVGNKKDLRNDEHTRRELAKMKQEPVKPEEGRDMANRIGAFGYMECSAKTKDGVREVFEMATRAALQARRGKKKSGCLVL
T1 sequence (P60953 whole entry, the tested form may be a part): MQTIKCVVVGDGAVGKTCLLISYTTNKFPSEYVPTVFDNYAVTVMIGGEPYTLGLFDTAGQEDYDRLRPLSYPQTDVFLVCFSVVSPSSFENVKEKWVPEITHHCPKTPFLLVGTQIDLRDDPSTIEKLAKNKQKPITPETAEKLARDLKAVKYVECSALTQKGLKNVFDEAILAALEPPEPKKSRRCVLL

B1: glu-glu tagged •N-p115 (amino acids 249-912 of human p115 Rho-GEF) (other, not shown: small tags and cut ends)
chain: VMGNRRSDDPPKTKKGLSSILDAARWNRGEPQVPDFRHLKAEVDAEKPGATDRKGGVGMPSRDRNIGAPGQDTPGVSLHPLSLDSPDREPGADAPLELGDSSPQGPMSLESLAPPESTDEGAETESPEPGDEGEPGRSGLELEPEEPPGWRELVPPDTLHSLPKSQVKRQEVISELLVTEAAHVRMLRVLHDLFFQPMAECLFFPLEELQNIFPSLDELIEVHSLFLDRLMKRRQESGYLIEEIGDVLLARFDGAEGSWFQKISSRFCSRQSFALEQLKAKQRKDPRFCAFVQEAESRPRCRRLQLKDMIPTEMQRLTKYPLLLQSIGQNTEEPTEREKVELAAECCREILHHVNQAVRDMEDLLRLKDYQRRLDLSHLRQSSDPMLSEFKNLDITKKKLVHEGPLTWRVTKDKAVEVHVLLLDDLLLLLQRQDERLLLKSHSRTLTPTPDGKTMLRPVLRLTSAMTREVATDHKAFYVLFTWDQEAQIYELVAQTVSERKNWCALITETAGSLKVPAPASRPKPRPRPSSTREPLLSSSENGNGGRETSPADARTERILSDLLPFCRPGPEGQLAATALRKVLSLKQLLFPAEEDNGAGPPRDGDGVPGGGPLSPARTQEIQENLLSLEETMKQLEELEEEFCRLRPLLSQLGGNSVPQPGCT
notes: Expressed in the baculovirus/Sf9 system and purified on anti-glu-glu Sepharose; also called N-terminal truncated version of p115
Turning to B1, the binding result with GST-Cdc42Hs, in the experiment with GST-Rac1 and with EE-K-Ras was “no binding” throughout. In experiment [1], the “stimulation of the intrinsic dissociation of GDP from RhoA” value was determined as 10 fold.

These data come from patent US20020192785A1 (ONYX PHARMACEUTICALS, published 2002).
